{"source": "the DeepSol protein solubility set"}
{"experiment": "soluble on expression in E. coli; label from the status in PepcDB or PDB records"}
{"sequence": "SNAMLFDEKEILAITRWAKLYANQSPDRILLGSNDIPPEYRAAVATQIELWPRLRNKLPQWAGISSLYIPSRLSLEQSSGAVTSSYKSRFIREGTKVVDLTGGLGIDFIALMSKASQGIYIERNDETAVAARHNIPLLLNEGKDVNILTGDFKEYLPLIKTFHPDYIYVDPARRSGADKRVYAIADCEPDLIPLATELLPFCSSILAKLSPMIDLWDTLQSLLHVQELHVVAAHGEVKELLVRMSLNEATIPPEKVPIHAINLLLEDTVIPFIFTMEEERSISIPYTDSIDKYVYEPHTALLKAGAFKTVAYRLGLRKLHPNSHLYTSEAYESAFPGRTFVLEEIIPFSTSVLKQLRKVVPQASISCRNFPLSPIELRQRSKMADGGEKTLMGTTMADGKKVLLLLRKAE", "soluble on expression in E. coli": "soluble"}
{"sequence": "SNAMQAIRSILVVIEPDQLEGLALKRAQLIAGVTQSHLHLLVCEKRRDHSAALNDLAQELREEGYSVSTNQAWKDSLHQTIIAEQQAEGCGLIIKQHFPDNPLKKAILTPDDWKLLRFAPCPVLMTKTARPWTGGKILAAVDVGNNDGEHRSLHAGIISHAYDIAGLAKATLHVISAHPSPMLSSADPTFQLSETIEARYREACRTFQAEYGFSDEQLHIEEGPADVLIPRTAQKLDAVVTVIGTVARTGLSGALIGNTAEVVLDTLESDVLVLKPDDIIAHLEELASKE", "soluble on expression in E. coli": "soluble"}
{"sequence": "SNAMQIVKKEKFILKEYTFENGRTIPVQMGYETYGTLNRERSNVILICHYFSATSHAAGKYTAHDEESGWWDGLIGPGKAIDTNQYFVICTDNLCNVQVKNPHVITTGPKSINPKTGDEYAMDFPVFTFLDVARMQCELIKDMGIARLHAVMGPSAGGMIAQQWAVHYPHMVERMIGVITNPQNPIITSVNVAQNAIEAIRLDPSWKGGKYGEEQPMKGLQLANRMMFMNAFDEHFYETTYPRNSIEVEPYEKVSSLTSFEKEINKLTYRSIELVDANSWMYTAKAVLLHDIAHGFSSLEEALSNVEANVLMIPCKQDLLQPSRYNYKMVDLLQKQGKYAEVYEIESINGHMAGVFDIHLFEKKVYEFLNRKVSSFV", "soluble on expression in E. coli": "soluble"}
{"sequence": "SNAMSQKLYNMKFAAVYLALIAKVERKGGKAESVHQVTSWLTGYEVSDVLACLDRDVTYGDFFRQAPYYVPERIAITGKICGVRIEEIDDPLMQEIRRLDKLVDWLAKGKTSQQVLEKYEKHK", "soluble on expression in E. coli": "soluble"}
{"sequence": "SNAMTHIQLDFSKTLEFFGEHELKQQQEIVKSIHKTIHEGTGAGSDFLGWVDLPVDYDKEEFSRIVEASKRIKENSDVLVVIGIGGSYLGARAAIEMLTSSFRNSNEYPEIVFVGNHLSSTYTKELVDYLADKDFSVNVISKSGTTTEPAVAFRLFKQLVEERYGKEEAQKRIFATTDKEKGALKQLATNEGYETFIVPDDVGGRYSVLTAVGLLPIATAGINIEAMMIGAAKAREELSSDKLEENIAYQYATIRNILYAKGYTTEMLINYEPSMQYFNEWWKQLFGESEGKDFKGIYPSSANYTTDLHSLGQYVQEGRRFLFETVVKVNHPKYDITIEKDSDDLDGLNYLAGKTIDEVNTKAFEGTLLAHTDGGVPNMVVNIPQLDEETFGYVVYFFELACAMSGYQLGVNPFNQPGVEAYKQNMFALLGKPGFEDLKKELEERL", "soluble on expression in E. coli": "soluble"}
{"sequence": "SNAPLKEQKVINTANIKTNSKLDLAEYENGLINIATQQFDTESHVLQLNQYIPEKLIDELVAKVEAPVLTNIIEQDYFGKQNSNELSLSGVMIGLAMSSSVSNEEAMSKGTEVAKQLIEAINKNDKYNKSPITFAIFKQESTSSLKNGTYIASATVQKNDTNLGNWSTIDEKSYSYPSDEFTQAHGEDNTKINNFAKEIKGFSNGDFIPVNAKVSYKKDQMDTLNMNIVIKYNGKTELMALTQLAAQGMLDKLPKDAKVQLQIKSESKIEAVIIKEKNSDKPFVSFL", "soluble on expression in E. coli": "soluble"}
{"sequence": "SNDAGAKTENTVDASPTPTNTPTDGDGDSAEEPVENTPAEPEPRPTPVEPEAMKTSDKAGAIAAAQYFVEVIEHSMHTSTTDLLEKYSYEKCSMCNEYKRTIAKRKDNGILVTNSQYEIKDLGPASLWGKKQLIWEVMLNLSVKEEYENFDESYTTEHSLLFYVTYLPDGWVLTEVTPASKK", "soluble on expression in E. coli": "not soluble"}
{"sequence": "SNGAGLAADIQLQRDAKTPLALSAKLAEVFFRTGNPLAATLADWPGLLELGNGRATAAAGWKLDAAGGSSLDLDLTLKGLDGIYDRSELKGLGGSLALRLRGGQLSLDSPGLSLAEANPGLPLGPVSFRGRYEAPLSAPGSGRLSWQTLQSGLFGGQASVPAGSIRLGQAEQKFALRIQGIQLGEIFRVYPAEGLAGEGTLDGELPLMLNRWKPSVSGGQVKAREPGYLRFRSAKIEALGRSNPGMKLVADALDDFHYDVLQSSVDYHENGKLLLGLRLQGSNPDLEKGRPVNLNVNLEEDIPALLTSLQLSDRVSETIRQ", "soluble on expression in E. coli": "not soluble"}
{"sequence": "SNSGEPAPVLSSPTPTDLSTFLSFPSPEKLLRLGPKVSVLIVQQTDTSDPEKVVSAFLKVASVFRDDASVKTAVLDAIDALMKKAFSCSSFNSNTFLTRLLIHMGLLKSEDKIKAIPSLHGPLMVLNHVVRQDYFPKALAPLLLAFVTKPNGALETCSFARHNLLQTLYNI", "soluble on expression in E. coli": "soluble"}
{"sequence": "SNTGPYYFVKNLPLHELITPEFISTFIKKGKLILSLDKDTYEETGLQGHPSQFSGRKIMKFIVSIDLMELSLNLDSKKYERISWSFKEKKPLKFDFLLAWHKTGSEESTMMSYFSKYQIQEHQPKVALSTLRDLQCPVLQSSELEGTPEVSCRALELFDWLGAVFSNVDLNNEPNNFISTYCCPEPSTVVAKAYLCTITGFILPEKICLLLEHLCHYFDEPKLAPWVTLSVQGFADSPVSWEKK", "soluble on expression in E. coli": "soluble"}
{"sequence": "SNVNIDSEQLFTEEKPKDYAQPEVLCHTFELLSNLHKLLPNRTVEVLHSYRSEEDKRKCEKPEFSGIEKILARHQLPKEINLSPKPSHVPSWKRKIINNISGNWKKCRLWQKSIYEPPMGTIIVRWTKKNLQPSEDLKSVIQRLSALGPIISVTPCGRESAVVVFRDAASACKAVSAFQTMSADSMFHCSWQHRFMSKNKTWSRRYPSKIHAEKKEKHP", "soluble on expression in E. coli": "soluble"}
{"sequence": "SPAAVASALEGCREPVPGIRCRDAFSAASGIIDKMACVPELAVSEISAPRIVSSLAGDGHALFVANSMPARDMDLYAAPVAQKPLQVALNRGVSGIDGIISTAAGFSAGLGKPTTLLIGDISFLHDLNALCLLNHPWNPLIVIVLNNHGGSIFSFLPIASQTDRLDECFATPQNFSIESAARTFGIDYACPETNGDFTQLYAEALTTKKSLIIEIRSDREKNLLLHRSLKARLDPVFEKADC", "soluble on expression in E. coli": "not soluble"}
{"sequence": "SPSETLWEIAKAEVEKRRSHGSEGDGAEIGEKSVFFIGSKNGGKTTIILRCLDRDESAKPTLALEYTYGRKTKGHNTPKDIAHFWELGGGTSLLDLISIPITVDTLRTFSIVLVLDLSKPNDLWSTMENLLQATKSHVDKVIMKLGKTSSKASAEMRQRMWSVVQKDHPDRELIDPFPIPLVIIGSKYDIFQDFDPEKRKVICKTLRFVAHYYGASLMFTSKSEALLLKIRGVINQLAFGIDKSKSICVDQNKPLFITAGLDSLCQIGSPPVPDSDIGKLQAHSPMELWKKVYDKLFPPKSTGTLKAVQDPARDPQYAESEVDEMRVQKDQELEHYKRSSSKTWKQIELDS", "soluble on expression in E. coli": "soluble"}
{"sequence": "SPSYTVLGQLPDTDVYIDIDAYEEVKEIPGIKIFQINAPIYYANSDLYSSALKRKTGVNGSENIHTVILDFTQVNFMDSVGVKTLAGIVKEYGDVGIYVYLAGCSAQVVNDLTSNRFFENPALKELLFHSIHDAVLGSQVREA", "soluble on expression in E. coli": "soluble"}
{"sequence": "SPTPVELHKVTLYKDSGMEDFGFSVADGLLEKGVYVKNIRPAGPGDLGGLKPYDRLLQVNHVRTRDFDCCLVVPLIAESGNKLDLVISRNP", "soluble on expression in E. coli": "soluble"}
{"sequence": "SPVVVVTGASRGIGKAIALSLGKAGCKVLVNYARSAKAAEEVSKQIEAYGGQAITFGGDVSKEADVEAMMKTAIDAWGTIDVVVNNAGITRDTLLIRMKKSQWDEVIDLNLTGVFLCTQAATKIMMKKRKGRIINIASVVGLIGNIGQANYAAAKAGVIGFSKTAAREGASRNINVNVVCPGFIASDMTAKLGEDMEKKILGTIPLGRTGQPENVAGLVEFLALSPAASYITGQAFTIDGGIAI", "soluble on expression in E. coli": "soluble"}
{"sequence": "SQDPYFKIANWTNEHDDFKKAEMRMDEKHRKKVDKVMKEWGDLETRYNEQKAKDPKGAEKFKSQMNARFQKTVSSLEEEHKRMRKEIEAVHEERVQAMLNEKKRDATHDYRQALATHVNKPNKHSVLQSLKAYIRAEEKDRMHTLNRYRHLLKADSKEAAAYKPTVIHRLRYIDLRINGTLAMLRDFPDLEKYVRPIAVTYWKDYRDEVSPDISVEDSELTPIIHDDEFSKNAKLDVKA", "soluble on expression in E. coli": "soluble"}
{"sequence": "SQVDVKDCANHEIKKVLVPGCHGSEPCIIHRGKPFQLEAVFEANQNTKTAKIEIKASIDGLEVDVPGIDPNACHYMKCPLVKGQQYDIKYTWNVPKIAPKSENVVVTVKVMGDDGVLACAIATHAKIRD", "soluble on expression in E. coli": "soluble"}
{"sequence": "SRKMSLMRKEKLRGKAIKYVPASLLTKEFYSEAFTLNVDVIENIPKEFITAKMCEEAIQKNRHNIAYIPFEYRTEKIITEAIKNNGLALSEIDDTQKTEQLCLLAIRNHGGALQYVPYQLRTPEICLEAVKNFNGALNYVPEHIRTADFHTEYLIEDDWIDELLAGYDERLLKAVRKDARNLAAIPEEQRTYELCVEALLNNNDSDSVLKYVPDEFKTPEFYRNCVRINNKHFKDIPDSMKSYELCFEAVTNSPYALEYVPQRLLTKEIILAALSQKSMAVLDYVPPEFMTEEVYTTAFKNDIFGDIAYIFPEEYRTKENYLAMLGNPYSVCSTIIKTMPDYLKTDDFLVAAAKLRDEMLEYVPEYLLTQELCYELVKANGYALRITPPQFITEALCRTAVESDPRALCYVPEEFRTHEICDLALQKDMGLIKYAPADFAITADLCRRAVEADADAINQIPEQFRTEELWRIAVSEYGRLLEDLPASLMSEEFCRLAVANDGRALEFVPDKNKTKDVCFEAVRNSGHALKFVDVSKLTKEEYSKLCRLAFER", "soluble on expression in E. coli": "not soluble"}
{"sequence": "SRLEGWLSLPVRNNTKKFGWVKKYVIVSSKKILFYDSEQDKEQSNPYMVLDIDKLFHVRPVTQTDVYRADAKEIPRIFQILYANEGISSAKNLLLLANSTEEQQKWVSRLVKKIPKK", "soluble on expression in E. coli": "soluble"}
{"sequence": "SRLSRIDLAVDDFHGLFGREYAKKAYSDDAFRTARAGRAPNGGERLVSEPNGKIINESFEVGSRESRIYWRIYNKAAQLGLDMHWFRNEVELKDMPIDVLLNIEGYFAGLCAYSASIINSLPVKVVTKKRQVALDIHSRIKWARRQVGKTLFDISKHFGGDLERVFGALISKEIHDDSLNLPDSYM", "soluble on expression in E. coli": "not soluble"}
{"sequence": "SRNFSVFERFSKAFKDHPSLTRILVVSTISGGGLIAYSEANASYGANGGAVVETGTKKKKVVLLGTGWAGTSFLKNLNNSQYEVQIISPRNYFAFTPLLPSVTCGTVEARSVVEPIRNIGRKNVDTSYLEAECFKIDPASKKVYCRSKQGLSSNGKKEFSVDYDYLVIATGAQSNTFNIPGVEENCHFLKEVEDAQRIRKTVIDSFEKASLPELSDEERKRILHFVVVGGGPTGVEFAAELHDFVTEDLVSLYPRAKGSVRITLLEAADHILTMFDKRITEFAEEKFSRDGIDVKLGSMVTKVNEKDISAKTKGGEVSSIPYGMIVWSTGIGTRPVIKDFMKQIGQGNRRALATDEWLRVEGTDNIYALGDCATINQRKVMEDVSAIFSKADKDKSGTLTLKEFQEAMDDICVRYPQVELYLKSKRMRGIADLLKEAETDDVSKNNIELKIEEFKSALSQVDSQVKFLPATAQVAAQQGAYLAKCFDRMEECEKSPEGPIRMRGEGRHRFRPFRYRHLGQFAPLGGEQTAAQLPGDWVSIGHSSQWLWYSVYASKQVSWRTRVLVVSDWMRRFIFGRDSSSI", "soluble on expression in E. coli": "soluble"}
